Assay [1] concerns the target T1, human interleukin-2 (recombinant human IL-2, teceleukin) (human, UniProt P60568 21-153).
T1 construct: also called hIL-2; rhIL-2
Briefly: SPR.

The target in assay [2] is T1, human interleukin-2 (recombinant human …). The experiment in a line: SPR. On the procedure: Chip surface was regenerated after every cycle using glycine buffer pH 1.5. Measurements were acquired at 20° C. and analysed on a Biacore T100 (GE Healthcare).
This is another data set of the same source.

Assay [3] has the same target. The experiment in a line: single-cycle surface plasmon resonance (SPR).

Where two headings read alike, the source gives them in different places.

Results on 20 molecules are retold here after patent publication US20230303680A1 (UNIVERSIT T Z RICH, published 2023).

T1 sequence (P60568 21-153 limits assumed): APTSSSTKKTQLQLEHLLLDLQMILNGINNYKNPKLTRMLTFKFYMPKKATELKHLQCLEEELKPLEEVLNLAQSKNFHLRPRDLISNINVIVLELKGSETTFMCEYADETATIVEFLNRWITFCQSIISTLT

B1: UFKA-22-10 (antibody, human IgG1, V domains shown)
VH: EVQLVESGGGLVKPGGSLRLSCAASGFSFSNYAMSWVRQAPGKGLEWVSLISGGGSYSYYPDSLKGRFTISRDSAKNSLYLQMSSLRAEDTAVYYCARHMGYNDYLAWFAYWGQGTLVTVSS
VL: DIVMTQSPDSLAVSLGERATINCKSSQSLLNSANQKNYLAWYQQKPGQPPKLLIYFASTRESGVPDRFIGSGSGTDFTLTISSLQAEDVAVYYCQQYYSAPPWTFGGGTKVEIK
Regarding B1, in assay [1], the Kd amounted to 5.16 nM, the koff turned out to be 0.00283 s⁻¹ and the on-rate (kon) stood at 548000 M⁻¹ s⁻¹.

B2: UFKA-22-00 (humanized UFKA-20) (antibody, human IgG1, kappa, N297A, V domains shown)
VH: EVQLVESGGGLVKPGGSLRLSCAASGFSFSNYAMSWVRQAPGKGLEWVSLISGGGSYSYYPDSLKGRFTISRDNAKNSLYLQMNSLRAEDTAVYYCARHMGYNDYLAWFAYWGQGTLVTVSS
VL: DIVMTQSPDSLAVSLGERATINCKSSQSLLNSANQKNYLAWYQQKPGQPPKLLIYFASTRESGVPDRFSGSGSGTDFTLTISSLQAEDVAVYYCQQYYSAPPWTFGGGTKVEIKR
notes: Human IgG1 with N297A
On to B2, for which, in assay [2], the Kd was 5.13 nM, the koff was found to be 0.00239 s⁻¹ and the association rate constant (kon) was 466000 M⁻¹ s⁻¹. Moreover, in assay [1], the Kd worked out at 5.13 nM, the koff is 0.00239 s⁻¹ and the kon came to 466000 M⁻¹ s⁻¹.

B3: UFKA-22-11 (antibody, human IgG1, V domains shown)
VH: EVQLVESGGGLVKPGGSLRLSCAASGFSFSNYAMSWVRQAPGKGLEWVSLISGGGSYSYYPDSLKGRFTISRDSAKNSLYLQMNSLRAEDTAMYYCARHMGYNDYLAWFAYWGQGTLVTVSS
VL: DIVMTQSPDSLAVSLGERATINCKSSQSLLNSANQKNYLAWYQQKPGQPPKLLIYFASTRESGVPDRFIGSGSGTDFTLTISSLQAEDVAVYYCQQYYSAPPWTFGGGTKVEIK
With B3, in assay [1], the dissociation constant Kd came to 5.31 nM, the koff came to 0.00275 s⁻¹ and the on-rate (kon) turned out to be 517000 M⁻¹ s⁻¹.

B4: UFKA-22-12 (antibody, human IgG1, V domains shown)
VH: EVQLVESGGGLVKPGGSLRLSCAASGFSFSNYAMSWVRQAPGKGLEWVSLISGGGSYSYYPDSLKGRFTISRDNAKNSLYLQMSSLRAEDTAMYYCARHMGYNDYLAWFAYWGQGTLVTVSS
VL: DIVMTQSPDSLAVSLGERATINCKSSQSLLNSANQKNYLAWYQQKPGQPPKLLIYFASTRESGVPDRFIGSGSGTDFTLTISSLQAEDVAVYYCQQYYSAPPWTFGGGTKVEIK
For the molecule B4, in assay [1], the Kd amounted to 5.05 nM, the koff turned out to be 0.0024 s⁻¹ and the on-rate constant (kon) turned out to be 474000 M⁻¹ s⁻¹.

B5: UFKA-22-02 (antibody, human IgG1, V domains shown)
VH: EVQLVESGGGLVKPGGSLRLSCAASGFSFSNYAMSWVRQAPGKGLEWVSLISGGGSYSYYPDSLKGRFTISRDNAKNSLYLQMSSLRAEDTAVYYCARHMGYNDYLAWFAYWGQGTLVTVSS
VL: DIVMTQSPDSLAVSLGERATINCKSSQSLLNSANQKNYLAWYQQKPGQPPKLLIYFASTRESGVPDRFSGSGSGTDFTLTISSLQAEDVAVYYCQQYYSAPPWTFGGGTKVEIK
For the molecule B5, in assay [2], the Kd was found to be 5.51 nM, the koff turned out to be 0.00227 s⁻¹ and the kon was 412000 M⁻¹ s⁻¹. In assay [1], the Kd turned out to be 5.51 nM, the koff was 0.00227 s⁻¹ and the kon was 412000 M⁻¹ s⁻¹.

B6: UFKA-22-03 (antibody, human IgG1, V domains shown)
VH: EVQLVESGGGLVKPGGSLRLSCAASGFSFSNYAMSWVRQAPGKGLEWVSLISGGGSYSYYPDSLKGRFTISRDSAKNSLYLQMSSLRAEDTAVYYCARHMGYNDYLAWFAYWGQGTLVTVSS
VL: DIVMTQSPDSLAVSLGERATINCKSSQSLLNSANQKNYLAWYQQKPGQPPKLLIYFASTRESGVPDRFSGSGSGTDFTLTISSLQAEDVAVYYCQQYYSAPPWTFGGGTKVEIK
B6: in assay [1], the Kd is 4.73 nM, the koff amounted to 0.00279 s⁻¹ and the on-rate (kon) is 590000 M⁻¹ s⁻¹.

B7: UFKA-22-07 (antibody, human IgG1, V domains shown)
VH: EVQLVESGGGLVKPGGSLRLSCAASGFSFSNYAMSWVRQAPGKGLEWVSLISGGGSYSYYPDSLKGRFTISRDNAKNSLYLQMNSLRAEDTAVYYCARHMGYNDYLAWFAYWGQGTLVTVSS
VL: DIVMTQSPDSLAVSLGERATINCKSSQSLLNSANQKNYLAWYQQKPGQPPKLLIYFASTRESGVPDRFIGSGSGTDFTLTISSLQAEDVAVYYCQQYYSAPPWTFGGGTKVEIK
As for B7, in assay [2], the Kd stood at 5.17 nM, the koff turned out to be 0.00251 s⁻¹ and the on-rate constant (kon) was found to be 486000 M⁻¹ s⁻¹. For the same molecule, in assay [1], the Kd was determined as 5.17 nM, the koff stood at 0.00251 s⁻¹ and the kon amounted to 486000 M⁻¹ s⁻¹.

B8: UFKA-22-13 (antibody, human IgG1, V domains shown)
VH: EVQLVESGGGLVKPGGSLRLSCAASGFSFSNYAMSWVRQAPGKGLEWVSLISGGGSYSYYPDSLKGRFTISRDSAKNSLYLQMSSLRAEDTAMYYCARHMGYNDYLAWFAYWGQGTLVTVSS
VL: DIVMTQSPDSLAVSLGERATINCKSSQSLLNSANQKNYLAWYQQKPGQPPKLLIYFASTRESGVPDRFIGSGSGTDFTLTISSLQAEDVAVYYCQQYYSAPPWTFGGGTKVEIK
For B8, in assay [1], the Kd amounted to 4.56 nM, the koff was found to be 0.00277 s⁻¹ and the kon worked out at 607000 M⁻¹ s⁻¹.

B9: UFKA-22-04 (antibody, human IgG1, V domains shown)
VH: EVQLVESGGGLVKPGGSLRLSCAASGFSFSNYAMSWVRQAPGKGLEWVSLISGGGSYSYYPDSLKGRFTISRDSAKNSLYLQMNSLRAEDTAMYYCARHMGYNDYLAWFAYWGQGTLVTVSS
VL: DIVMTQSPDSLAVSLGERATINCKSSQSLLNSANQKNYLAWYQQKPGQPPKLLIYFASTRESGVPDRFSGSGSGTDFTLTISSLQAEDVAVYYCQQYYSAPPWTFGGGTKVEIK
As to B9, in assay [1], the Kd turned out to be 5.03 nM, the koff turned out to be 0.00241 s⁻¹ and the kon came out at 479000 M⁻¹ s⁻¹.

B10: UFKA-22-05 (antibody, human IgG1, V domains shown)
VH: EVQLVESGGGLVKPGGSLRLSCAASGFSFSNYAMSWVRQAPGKGLEWVSLISGGGSYSYYPDSLKGRFTISRDNAKNSLYLQMSSLRAEDTAMYYCARHMGYNDYLAWFAYWGQGTLVTVSS
VL: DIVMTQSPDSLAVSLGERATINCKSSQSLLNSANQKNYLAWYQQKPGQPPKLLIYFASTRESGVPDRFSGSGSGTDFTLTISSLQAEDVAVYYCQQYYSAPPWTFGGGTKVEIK
Turning to B10, in assay [1], the Kd worked out at 4.86 nM, the koff was determined as 0.0022 s⁻¹ and the kon was found to be 452000 M⁻¹ s⁻¹.

B11: UFKA-22-01 (antibody, human IgG1, V domains shown)
VH: EVQLVESGGGLVKPGGSLRLSCAASGFSFSNYAMSWVRQAPGKGLEWVSLISGGGSYSYYPDSLKGRFTISRDSAKNSLYLQMNSLRAEDTAVYYCARHMGYNDYLAWFAYWGQGTLVTVSS
VL: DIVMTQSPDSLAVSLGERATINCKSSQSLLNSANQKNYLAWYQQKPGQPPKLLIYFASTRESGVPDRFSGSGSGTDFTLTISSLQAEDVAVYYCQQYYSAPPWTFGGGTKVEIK
In the case of B11, in assay [1], the Kd was found to be 5.31 nM, the koff was 0.00252 s⁻¹ and the kon is 475000 M⁻¹ s⁻¹.

B12: UFKA-22-14 (antibody, human IgG1, V domains shown)
VH: EVQLVESGGGLVKPGGSLRLSCAASGFSFSNYAMSWVRQAPGKGLEWVSLISGGGSYSYYPDSLKGRFTISRDNAKNSLYLQMNSLRAEDTAVYYCARHMGYNDYLAWFAYWGQGTLVTVSA
VL: DIVMTQSPDSLAVSLGERATINCKSSQSLLNSANQKNYLAWYQQKPGQPPKLLIYFASTRESGVPDRFIGSGSGTDFTLTISSLQAEDVAVYYCQQYYSAPPWTFGGGTKVEIK
As to B12, in assay [1], the Kd was found to be 4.3 nM, the koff worked out at 0.0024 s⁻¹ and the kon is 560000 M⁻¹ s⁻¹.

B13: UFKA-22-09 (antibody, human IgG1, V domains shown)
VH: EVQLVESGGGLVKPGGSLRLSCAASGFSFSNYAMSWVRQAPGKGLEWVSLISGGGSYSYYPDSLKGRFTISRDNAKNSLYLQMSSLRAEDTAVYYCARHMGYNDYLAWFAYWGQGTLVTVSS
VL: DIVMTQSPDSLAVSLGERATINCKSSQSLLNSANQKNYLAWYQQKPGQPPKLLIYFASTRESGVPDRFIGSGSGTDFTLTISSLQAEDVAVYYCQQYYSAPPWTFGGGTKVEIK
Turning to B13, in assay [1], the Kd came out at 5.27 nM, the koff turned out to be 0.00246 s⁻¹ and the kon came to 466000 M⁻¹ s⁻¹.

B14: UFKA-22-06 (antibody, human IgG1, V domains shown)
VH: EVQLVESGGGLVKPGGSLRLSCAASGFSFSNYAMSWVRQAPGKGLEWVSLISGGGSYSYYPDSLKGRFTISRDSAKNSLYLQMSSLRAEDTAMYYCARHMGYNDYLAWFAYWGQGTLVTVSS
VL: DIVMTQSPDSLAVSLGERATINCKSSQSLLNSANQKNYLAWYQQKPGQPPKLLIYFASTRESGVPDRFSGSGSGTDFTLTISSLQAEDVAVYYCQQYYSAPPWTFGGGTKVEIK
Regarding B14, in assay [1], the Kd came to 4.45 nM, the koff stood at 0.00252 s⁻¹ and the kon turned out to be 567000 M⁻¹ s⁻¹.

B15: UFKA-22-08 (antibody, human IgG1, V domains shown)
VH: EVQLVESGGGLVKPGGSLRLSCAASGFSFSNYAMSWVRQAPGKGLEWVSLISGGGSYSYYPDSLKGRFTISRDSAKNSLYLQMNSLRAEDTAVYYCARHMGYNDYLAWFAYWGQGTLVTVSS
VL: DIVMTQSPDSLAVSLGERATINCKSSQSLLNSANQKNYLAWYQQKPGQPPKLLIYFASTRESGVPDRFIGSGSGTDFTLTISSLQAEDVAVYYCQQYYSAPPWTFGGGTKVEIK
On to B15, for which, in assay [1], the dissociation constant (Kd) is 5.33 nM, the koff was 0.00275 s⁻¹ and the kon worked out at 515000 M⁻¹ s⁻¹.

B16: 4 + 9 (antibody, V domains shown)
VH: EVMLVESGGGLVKPGGSLKLSCAASGFSFSNYAMSWVRQTPERRLEWVALISGGGRYSYYPDSLKGRFTISRDSARNSLYLQMSSLRSEDTAMYYCARHMGHNDYLAWFAYWGQGTLVTVSS
VL: DIVMTQSPSSLAVSVGQKVTMSCKSSQSLLNSANQRNYLAWYQQKPGQSPKLLIYWASTRESGVPDRFIGSGSGTDFTLNISSVQAEDLADYFCQQYYSAPPWTFGGGTKLEIKR
notes: UFKA-20 variant; also called UFKA-20 variant 4+9; vH chain 4, vL chain 9; copies: 2 + 2
Consider B16, for which, in assay [3], the Kd is 1.02 nM.

B17: 105 + 6 (antibody, V domains shown)
VH: EVMLVESGGGLVKPGGSLKLSCAASGFSFSNYAMSWVRQTPERRLEWVALISGGGSYSYYPDSLKGRFTISRDSARNSLYLQMSSLRSEDTAMYYCARHMGYNDALAWFAYWGQGTLVTVSS
VL: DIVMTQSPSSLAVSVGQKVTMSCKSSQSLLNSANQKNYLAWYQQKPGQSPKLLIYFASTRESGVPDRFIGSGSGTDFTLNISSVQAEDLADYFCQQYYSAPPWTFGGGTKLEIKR
notes: UFKA-20 variant; also called UFKA-20 variant 105+6; vH chain 105, vL chain 6; copies: 2 + 2
On to B17, for which the Kd in assay [3] came out at 0.429 nM.

B18: 103 + 9 (antibody, V domains shown)
VH: EVMLVESGGGLVKPGGSLKLSCAASGFSFSNYAMSWVRQTPERRLEWVALISGGGSYSYYPDSLKGRFTISRDSARNSLYLQMSSLRSEDTAMYYCARHMGYADYLAWFAYWGQGTLVTVSS
VL: DIVMTQSPSSLAVSVGQKVTMSCKSSQSLLNSANQRNYLAWYQQKPGQSPKLLIYWASTRESGVPDRFIGSGSGTDFTLNISSVQAEDLADYFCQQYYSAPPWTFGGGTKLEIKR
notes: UFKA-20 variant; copies: 2 + 2
With B18, the Kd in assay [3] turned out to be 2.7 nM.

B19: 103 + 6 (antibody, V domains shown)
VH: EVMLVESGGGLVKPGGSLKLSCAASGFSFSNYAMSWVRQTPERRLEWVALISGGGSYSYYPDSLKGRFTISRDSARNSLYLQMSSLRSEDTAMYYCARHMGYADYLAWFAYWGQGTLVTVSS
VL: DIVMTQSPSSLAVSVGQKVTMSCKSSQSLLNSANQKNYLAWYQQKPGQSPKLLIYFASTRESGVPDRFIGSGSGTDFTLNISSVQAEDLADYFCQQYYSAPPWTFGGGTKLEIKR
notes: as for B18
On to B19, for which, in assay [3], the Kd stood at 2.09 nM.

B20: 4 + 10 (antibody, V domains shown)
VH: EVMLVESGGGLVKPGGSLKLSCAASGFSFSNYAMSWVRQTPERRLEWVALISGGGRYSYYPDSLKGRFTISRDSARNSLYLQMSSLRSEDTAMYYCARHMGHNDYLAWFAYWGQGTLVTVSS
VL: DIVMTQSPSSLAVSVGQKVTMSCKSSQSLLNVSNQRNYLAWYQQKPGQSPKLLIYFASTRESGVPDRFIGSGSGTDFTLNISSVQAEDLADYFCQQYYSCPPWTFGGGTKLEIKR
notes: UFKA-20 variant; also called UFKA-20 variant 4+10; vH chain 4, vL chain 10; copies: 2 + 2
On to B20, for which the Kd in assay [3] was 33.6 nM.
